The record followed here is US6514942B1, “Methods and compositions for stimulating T-lymphocytes” (The Board of Regents, The University of Texas System, priority 1995, dated 2003).

The experiment has as its target T1, HLA-A2 of T2 cells (Homo sapiens, UniProt P04439, D140Y/D185E/D98H/E176V/E277Q/G131W/G231S/I119V/I121R/I166T/I218V/L300P/L318F/N151K/N90K/P208A/P217A/Q86G/Q94H/R138H/R169H/T345S).
T1 construct: cell surface expression of HLA-A2 is lower (30-40%) than in normal LBL lines transfected with HLA-A2; endogenous in cells; host or cells: T2 (transport deletion mutant) human lymphoblastoid cells, obtained from Dr. Peter Creswell
Description: Reactivity of BB7.2 mAb with T2 cells after culture with peptide (immunofluorescence, FL1). Type of experiment: cell-based. The conditions noted are these: peptide 50 μg/ml, overnight culture. As for the experimental part:
FIG. 5B. Effects of HER-2 peptides on reactivity of BB7.2 mAb with T2 cells. Studies were performed as described in the legend to FIG. 5A.
mAbs to CD3 (OKT3-FITC), CD4 (OKT4-FITC) and CD8 (OKT8-FITC) were obtained from Ortho Diagnostic (Ortho, Raritan, N.J.), mAb W6/32 (anti-HLA, -A, -B, -C) from Dako (Dako-Dakopatts, Denmark); HLA-A2 reacting mAb BB7.2 and MA2.1 from ATCC. Immunofluorescence studies were performed as described in Example 1.
To determine whether these peptides and longer analogs affect HLA-A2 conformation as an indication of HLA-A2 binding, the effects of HER-2 peptides on the reactivity of conformationally dependent mAb MA2.1 and BB.7.2 were examined with HLA-A2 of T2 cells. The human cell line T2 has a defect affecting endogenous peptide loading of MHC class I molecules. As a consequence, cell surface expression of HLA-A2 is lower (30-40%) than in normal LBL lines transfected with HLA-A2 (e.g., C1R) but the reactivity of MA2.1 and BB.7.2 mAb is increased when certain HLA-A2 binding peptides are added to the culture medium (Anderson et al., 1993). Although most human MHC class I molecules cannot be induced at the low temperatures used for their murine counterparts because of fundamental structural differences between human and mouse class I (Anderson et al., 1993), the fact that they express few endogenous (mainly signal) peptides (Zweerink et al., 1993) increases the sensitivity of detection of peptide-HLA-A2 interaction.

For the sequence “ELVSEFSRV [Peptide C84, HER-2:971-979 analog, Met(P9) substituted by Val]”, the “FL1 of T2 cells stained with BB7.2 mAb” value was “even higher increase in FL1”.
